Laboratory results: patent publication US20210261965A1

Target: Phosphatidylserine decarboxylase (PSD/PISD), purified
Test: microscale thermophoresis (MST), fluorescently labeled purified SMAC, Monolith-NT115

Sequence of Phosphatidylserine decarboxylase (PSD/PISD), purified (B1AKM7 whole entry): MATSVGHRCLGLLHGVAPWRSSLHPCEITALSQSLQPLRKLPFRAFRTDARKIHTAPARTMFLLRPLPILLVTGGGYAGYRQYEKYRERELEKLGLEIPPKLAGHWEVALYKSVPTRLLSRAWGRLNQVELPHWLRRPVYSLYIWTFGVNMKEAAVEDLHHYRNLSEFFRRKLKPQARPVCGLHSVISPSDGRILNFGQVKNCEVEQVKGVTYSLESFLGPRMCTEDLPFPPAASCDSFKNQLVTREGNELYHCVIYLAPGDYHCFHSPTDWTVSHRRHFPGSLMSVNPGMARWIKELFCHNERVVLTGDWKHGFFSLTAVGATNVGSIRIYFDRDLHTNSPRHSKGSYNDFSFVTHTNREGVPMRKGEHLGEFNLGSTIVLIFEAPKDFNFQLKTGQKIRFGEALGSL

Kd: 100 nM
Substance: purified SMAC/Diablo (second mitochondria-derived activator of caspase/direct inhibitor of apoptosis-binding protein with low pI) (from UniProt Q9NR28 56-239)
